This note sets out measurements from PMC12858062 (2026).

This experiment has as its target Stabilised Pfs48/45 D3 (D3.mAgE1), PNGase F-deglycosylated, with C-terminal hexa-histidine tag and AviTag (P. falciparum). Nature of the experiment: BLI.

B1: Anti-Pfs48/45 monoclonal antibody TB31F (humanised version of 85RF45.1) (antibody, V domains shown)
VH: EVQLVQSGGGLVQPGGSLRLSCAASGFTFNNYWMSWVRQAPGKGLEWVSSISNIGGTIYYPDSVKGRFTISRDNSKNTLYLQMNSLRAEDTAVYYCTRDLRMSDYFDYWGQGTMVTVSS
VL: NFMLTQPHSVSESPGKTVTISCTRSTGNIGSNYVSWYQQRPGSSPTTVIYRDDQRPSGVPDRFSGSIDRSSNSASLTISGLKTEDEADYYCHSYSTGMYIFGGGTKLTVL
In the case of B1, the koff is 0.00239 s⁻¹.

B2: A4-Fc (anti-Pfs48/45 nanobody A4 fused to hinge and Fc of human IgG1) (Fc fusion)
chain: QVQLQESGGGLVQPGGSLRLSCAASGFTFSSYWMYWVRETPGKGLEWVSVINPGGRITIYTDSVKGRFTVSRDNAKNTVYLQMNSLKPEDTAVYFCAADLEYRAQLYAYWGQGTQVTVSS
B2 had a koff of 0.00851 s⁻¹.

B3: C3-Fc (anti-Pfs48/45 nanobody C3 fused to hinge and Fc of human IgG1) (Fc fusion)
chain: QVQLQESGGGSVQPGGSLRLSCAASGFTFSSYWMYWVRQAPEKGLEWVSVINPGGRITIYTDSVKGRFAVSRDNAKNTVYLQLNSLKPEDTAVYYCAASRTYSNSYSPSDYDYWGQGTQVTVSS
B3 came in with a koff of 0.0106 s⁻¹.

B4: B2-Fc (anti-Pfs48/45 nanobody B2 fused to hinge and Fc of human IgG1) (Fc fusion)
chain: QVQLQESGGGLVQAGGSLRLSCAASGRTFSKYAMAWFRQAPGKEREFVAAISGAGGATVHAAPVKGRFTISRDNAKNMGYLQMNSLKPEDTAVYYCAQTGSTGWPAGRTYTYDYWGQGTQVTVSS
B4 returned a koff of 0.00476 s⁻¹.
